The results in this text go back to publication PMC6644155.

The target of this series is T1, Thyroid hormone receptor beta (THRβ), recombinant (Homo sapiens, UniProt P10828 1-461).
T1 sequence: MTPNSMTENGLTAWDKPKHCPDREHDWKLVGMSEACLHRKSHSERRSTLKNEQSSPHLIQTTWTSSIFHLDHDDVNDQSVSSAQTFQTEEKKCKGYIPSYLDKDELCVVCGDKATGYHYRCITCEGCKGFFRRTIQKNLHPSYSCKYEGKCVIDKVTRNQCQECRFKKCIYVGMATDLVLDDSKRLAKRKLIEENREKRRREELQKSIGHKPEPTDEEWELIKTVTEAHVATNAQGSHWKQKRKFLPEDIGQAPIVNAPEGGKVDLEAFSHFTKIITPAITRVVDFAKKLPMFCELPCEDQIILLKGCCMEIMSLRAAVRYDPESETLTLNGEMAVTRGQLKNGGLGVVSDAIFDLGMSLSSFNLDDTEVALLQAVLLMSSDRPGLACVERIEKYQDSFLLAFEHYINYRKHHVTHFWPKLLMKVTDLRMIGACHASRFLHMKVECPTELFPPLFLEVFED
As to the kind of experiment: EMSA. In general terms: In EMSA bound probe runs differently from free probe, usually more slowly.

B1: rs717-G (dsDNA)
DNA 1: CCCGGTCAGGACCACGGTGACCATGAGGGCG
DNA 2: CGCCCTCATGGTCACCGTGGTCCTGACCGGG
B1: the binding result is “binds”.
